Results taken from US12187772 (Regeneron, dated 2025).
Like-named read-outs stand apart in the source and are kept apart here.

T1: IL10 receptor (IL10 receptor subunit alpha IL10Ra and beta subunit IL10Rb) on Ramos/STAT3-Luc and … (UniProt Q13651 22-578; Q08334 20-325, limits assumed)
T1 sequence (looked up) 1: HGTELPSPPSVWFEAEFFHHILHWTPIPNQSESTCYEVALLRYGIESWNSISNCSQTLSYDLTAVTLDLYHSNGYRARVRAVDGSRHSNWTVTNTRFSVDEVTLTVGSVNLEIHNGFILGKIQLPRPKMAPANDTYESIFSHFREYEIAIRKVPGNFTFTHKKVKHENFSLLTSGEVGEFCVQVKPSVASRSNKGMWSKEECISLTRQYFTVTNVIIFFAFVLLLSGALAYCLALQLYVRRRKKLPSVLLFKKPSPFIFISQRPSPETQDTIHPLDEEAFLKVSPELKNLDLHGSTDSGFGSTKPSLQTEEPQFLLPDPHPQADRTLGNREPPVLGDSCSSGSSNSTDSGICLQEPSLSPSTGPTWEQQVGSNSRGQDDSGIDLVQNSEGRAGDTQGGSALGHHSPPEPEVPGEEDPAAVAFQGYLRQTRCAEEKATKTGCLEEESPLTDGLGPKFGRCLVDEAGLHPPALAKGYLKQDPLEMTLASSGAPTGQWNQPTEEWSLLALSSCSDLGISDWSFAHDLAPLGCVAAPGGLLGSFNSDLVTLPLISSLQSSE
T1 sequence (looked up) 2: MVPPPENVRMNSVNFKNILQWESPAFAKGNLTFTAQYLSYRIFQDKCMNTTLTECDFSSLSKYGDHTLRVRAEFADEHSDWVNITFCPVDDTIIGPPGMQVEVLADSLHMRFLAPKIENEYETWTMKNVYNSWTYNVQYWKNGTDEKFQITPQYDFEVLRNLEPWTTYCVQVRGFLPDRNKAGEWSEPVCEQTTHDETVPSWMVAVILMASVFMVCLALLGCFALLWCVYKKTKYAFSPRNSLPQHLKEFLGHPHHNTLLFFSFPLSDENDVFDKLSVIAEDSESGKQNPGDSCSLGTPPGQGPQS


How the values were obtained:
Assay in all cases: cell-based or functional assay
[1] = target: T1, IL10 receptor (IL10 receptor subunit …)
[2] = target: T1, IL10 receptor (IL10 receptor subunit …); remark: listed apart in the source
[3] = target: T1, IL10 receptor (IL10 receptor subunit …); remark: listed apart in the source

Binder | EC50 [M] of luciferase activity, Ramos/STAT3-Luc reporter cells [1] | EC50 [M] of luciferase activity, TF-1/STAT3-Luc reporter cells [1] | Fold Induction of luciferase activity, Ramos/Stat3-Luc reporter cells [1] | Fold Induction of luciferase activity, TF-1/Stat3-Luc reporter cells [1] | Fold Induction of luciferase activity, Ramos/Stat3-Luc reporter cells [2] | Fold Induction of luciferase activity, TF-1/Stat3-Luc reporter cells [2] | EC50 of luciferase activity, Ramos/Stat3-Luc reporter cells [3] | EC50 of luciferase activity, TF-1/Stat3-Luc reporter cells [3] | Fold Induction of luciferase activity, Ramos/Stat3-Luc reporter cells [3] | Fold Induction of luciferase activity, TF-1/Stat3-Luc reporter cells [3] | other results
IL10M1 (Fc-3XG4S-hIL10; Fc is IgG4s) (Fc fusion) ESKYGPPCPPCPAPPVAGPSVFLFPPKPKDTLMISRTPEVTCVVVDVSQEDPEVQFNWYVDGVEVHNAKTKPREEQFNSTYRVVSVLTVLHQDWLNGKEYKCKVSNKGLPSSIEKTISKAKGQPREPQVYTLPPSQEEMTKNQVSLTCLVKGFYPSDIAVEWESNGQPENNYKTTPPVLDSDGSFFLYSRLTVDKSRWQEGNVFSCSVMHEALHNHYTQKSLSLSLGKGGGGSGGGGSGGGGSSPGQGTQSENSCTHFPGNLPNMLRDLRDAFSRVKTFFQMKDQLDNLLLKESLLEDFKGYLGCQALSEMIQFYLEEVMPQAENQDPDIKAHVNSLGENLKTLRLRLRRCHRFLPCENKSKAVEQVKNAFNKLQEKGIYKAMSEFDIFINYIEAYMTMKIRN | 1.19e-10 M | 1.18e-10 M | 3.7 fold | 4.8 fold | – | – | – | – | – | – | EC50 of luciferase activity, Ramos/Stat3-Luc reporter cells (IL10M1 L1) [2]: 0.117 nM; EC50 of luciferase activity, Ramos/Stat3-Luc reporter cells (IL10M1 L2) [2]: 0.148 nM; EC50 of luciferase activity, TF-1/Stat3-Luc reporter cells (IL10M1 L1) [2]: 0.139 nM; EC50 of luciferase activity, TF-1/Stat3-Luc reporter cells (IL10M1 L2) [2]: 0.134 nM; Fold Induction of luciferase activity, Ramos/Stat3-Luc reporter cells (IL10M1 L1) [2]: 4.11 fold; Fold Induction of luciferase activity, Ramos/Stat3-Luc reporter cells (IL10M1 L2) [2]: 3.66 fold; Fold Induction of luciferase activity, TF-1/Stat3-Luc reporter cells (IL10M1 L1) [2]: 4.12 fold; Fold Induction of luciferase activity, TF-1/Stat3-Luc reporter cells (IL10M1 L2) [2]: 3.4 fold
mIgG1 (murine IgG1 Fc isotype control; control antibody with murine IgG1 sequence) (antibody, V domains shown) VH: QVQLQESGPGLVAPSQSLSITCTVSGFSLTTFGVHWVRQSPGKGLEWLGVIWADETTNYNSALMSRLSISKDNSKSQVFLKMNGLRTDDTAIYSCARSKVSYYFDYWGRGTTLTVSS VL: NIMMTQSPSSLPVSPGEKVTMNCKSSRSVLYSLNQKNYLAWYQQKPGQSPKLLIYWASTRESGVPDRFTGSGSGTDFSLTISSVQAEDLAVYYCHQYLSSWTFGGGTKLEIKR | – | – | 1.1 fold | 1.1 fold | – | – | – | – | – | – | –
IL10M2 (hIL10-3XG4S-Fc; Fc is IgG4s) (Fc fusion) SPGQGTQSENSCTHFPGNLPNMLRDLRDAFSRVKTFFQMKDQLDNLLLKESLLEDFKGYLGCQALSEMIQFYLEEVMPQAENQDPDIKAHVNSLGENLKTLRLRLRRCHRFLPCENKSKAVEQVKNAFNKLQEKGIYKAMSEFDIFINYIEAYMTMKIRNGGGGSGGGGSGGGGSESKYGPPCPPCPAPPVAGPSVFLFPPKPKDTLMISRTPEVTCVVVDVSQEDPEVQFNWYVDGVEVHNAKTKPREEQFNSTYRVVSVLTVLHQDWLNGKEYKCKVSNKGLPSSIEKTISKAKGQPREPQVYTLPPSQEEMTKNQVSLTCLVKGFYPSDIAVEWESNGQPENNYKTTPPVLDSDGSFFLYSRLTVDKSRWQEGNVFSCSVMHEALHNHYTQKSLSLSLGK | 2.13e-10 M | 5.15e-10 M | 3.6 fold | 4.1 fold | – | – | – | – | – | – | EC50 of luciferase activity, Ramos/Stat3-Luc reporter cells (IL10M2 L1) [2]: 0.254 nM; EC50 of luciferase activity, Ramos/Stat3-Luc reporter cells (IL10M2 L2) [2]: 0.192 nM; EC50 of luciferase activity, TF-1/Stat3-Luc reporter cells (IL10M2 L1) [2]: 0.507 nM; EC50 of luciferase activity, TF-1/Stat3-Luc reporter cells (IL10M2 L2) [2]: 0.45 nM; Fold Induction of luciferase activity, Ramos/Stat3-Luc reporter cells (IL10M2 L1) [2]: 3.42 fold; Fold Induction of luciferase activity, Ramos/Stat3-Luc reporter cells (IL10M2 L2) [2]: 3.06 fold; Fold Induction of luciferase activity, TF-1/Stat3-Luc reporter cells (IL10M2 L1) [2]: 2.85 fold; Fold Induction of luciferase activity, TF-1/Stat3-Luc reporter cells (IL10M2 L2) [2]: 2.68 fold
IL10M8 (hIL10-Fc; Fc is IgG4s) (Fc fusion) SPGQGTQSENSCTHFPGNLPNMLRDLRDAFSRVKTFFQMKDQLDNLLLKESLLEDFKGYLGCQALSEMIQFYLEEVMPQAENQDPDIKAHVNSLGENLKTLRLRLRRCHRFLPCENKSKAVEQVKNAFNKLQEKGIYKAMSEFDIFINYIEAYMTMKIRNESKYGPPCPPCPAPPVAGPSVFLFPPKPKDTLMISRTPEVTCVVVDVSQEDPEVQFNWYVDGVEVHNAKTKPREEQFNSTYRVVSVLTVLHQDWLNGKEYKCKVSNKGLPSSIEKTISKAKGQPREPQVYTLPPSQEEMTKNQVSLTCLVKGFYPSDIAVEWESNGQPENNYKTTPPVLDSDGSFFLYSRLTVDKSRWQEGNVFSCSVMHEALHNHYTQKSLSLSLGK | – | – | – | – | – | – | 0.268 nM | 0.484 nM | 3.2 fold | 2.34 fold | –
IL10M6 (hIL10-2XG4S-Fc; Fc is IgG4s) (Fc fusion) SPGQGTQSENSCTHFPGNLPNMLRDLRDAFSRVKTFFQMKDQLDNLLLKESLLEDFKGYLGCQALSEMIQFYLEEVMPQAENQDPDIKAHVNSLGENLKTLRLRLRRCHRFLPCENKSKAVEQVKNAFNKLQEKGIYKAMSEFDIFINYIEAYMTMKIRNGGGGSGGGGSESKYGPPCPPCPAPPVAGPSVFLFPPKPKDTLMISRTPEVTCVVVDVSQEDPEVQFNWYVDGVEVHNAKTKPREEQFNSTYRVVSVLTVLHQDWLNGKEYKCKVSNKGLPSSIEKTISKAKGQPREPQVYTLPPSQEEMTKNQVSLTCLVKGFYPSDIAVEWESNGQPENNYKTTPPVLDSDGSFFLYSRLTVDKSRWQEGNVFSCSVMHEALHNHYTQKSLSLSLGK | – | – | – | – | – | – | 0.127 nM | 0.361 nM | 3.02 fold | 2.66 fold | –
IL10M3 (hIL10-1XG4S-Fc; Fc is murine IgG1) (Fc fusion) SPGQGTQSENSCTHFPGNLPNMLRDLRDAFSRVKTFFQMKDQLDNLLLKESLLEDFKGYLGCQALSEMIQFYLEEVMPQAENQDPDIKAHVNSLGENLKTLRLRLRRCHRFLPCENKSKAVEQVKNAFNKLQEKGIYKAMSEFDIFINYIEAYMTMKIRNGGGGSVPRDCGCKPCICTVPEVSSVFIFPPKPKDVLTITLTPKVTCVVVDISKDDPEVQFSWFVDDVEVHTAQTQPREEQFNSTFRSVSELPIMHQDWLNGKEFKCRVNSAAFPAPIEKTISKTKGRPKAPQVYTIPPPKEQMAKDKVSLTCMITDFFPEDITVEWQWNGQPAENYKNTQPIMDTDGSYFVYSKLNVQKSNWEAGNTFTCSVLHEGLHNHHTEKSLSHSPGK | 2.19e-10 M | 4.51e-10 M | 3.2 fold | 3.4 fold | – | – | – | – | – | – | –

Second part, led by results:

EC50 [M] of luciferase activity, Ramos/STAT3-Luc reporter cells [1] | EC50 [M] of luciferase activity, TF-1/STAT3-Luc reporter cells [1] | Fold Induction of luciferase activity, Ramos/Stat3-Luc reporter cells [1] | Fold Induction of luciferase activity, TF-1/Stat3-Luc reporter cells [1] | Fold Induction of luciferase activity, Ramos/Stat3-Luc reporter cells [2] | Fold Induction of luciferase activity, TF-1/Stat3-Luc reporter cells [2] | EC50 of luciferase activity, Ramos/Stat3-Luc reporter cells [3] | EC50 of luciferase activity, TF-1/Stat3-Luc reporter cells [3] | Fold Induction of luciferase activity, Ramos/Stat3-Luc reporter cells [3] | Fold Induction of luciferase activity, TF-1/Stat3-Luc reporter cells [3] | Binder | other results
– | – | 1 fold | 1.4 fold | 1.01 fold | 0.99 fold | – | – | – | – | hIgG4s (human IgG4 Fc isotype control; Fc is IgG4s) (antibody, V domains shown) VH: EVQLVESGGGLVQPGGSLRLSCAASGFTLSTYAMTWVRQAPGKGLEWVSAINYRAANTWYADSVKGRFTISRDNSKNTLYLQMNSLRDEDTAVYYCAQDRVIIKDYYVMDVWGQGTTVTVSS VL: not shown | –
5.07e-11 M | 7.05e-11 M | 4.5 fold | 5.9 fold | 5.16 fold | 4.02 fold | – | – | – | – | Recombinant human IL10 (obtained from Peprotech, Princeton NJ, Product #200-10) (ligand) SPGQGTQSENSCTHFPGNLPNMLRDLRDAFSRVKTFFQMKDQLDNLLLKESLLEDFKGYLGCQALSEMIQFYLEEVMPQAENQDPDIKAHVNSLGENLKTLRLRLRRCHRFLPCENKSKAVEQVKNAFNKLQEKGIYKAMSEFDIFINYIEAYMTMKIRN | EC50 of luciferase activity, Ramos/Stat3-Luc reporter cells [2]: 0.0482 nM; EC50 of luciferase activity, TF-1/Stat3-Luc reporter cells [2]: 0.063 nM
– | – | – | – | 1.1 fold | 1 fold | – | – | – | – | hIgG1 (anti-FelD1 human IgG1 Fc isotype control) (antibody, V domains shown) VH: QVQLQESGPGLVKPSETLSLTCTVSGGSISSYYWSWIRQPPGKGLEWIGYIYYSGRTNYNPSLKSRVTISVDTSKNQFSLKLSSVTAADTAIYYCARHRVTRTADSFDYWGQGTLVTVSS VL: DIQMTQSPSSLSASVGDRVTITCQASQDINNYLNWYQQKTGKAPKFLIYDASNLETGVSSRFSGSGSGTDFTFTISSLQPEDVGTYYCHQYGDLPYTFGQGTKLEIKR | –
– | – | – | – | – | – | 0.172 nM | 0.319 nM | 2.88 fold | 2.36 fold | IL10M7 (hIL10-1XG4S-Fc; Fc is IgG4s) (Fc fusion) SPGQGTQSENSCTHFPGNLPNMLRDLRDAFSRVKTFFQMKDQLDNLLLKESLLEDFKGYLGCQALSEMIQFYLEEVMPQAENQDPDIKAHVNSLGENLKTLRLRLRRCHRFLPCENKSKAVEQVKNAFNKLQEKGIYKAMSEFDIFINYIEAYMTMKIRNGGGGSESKYGPPCPPCPAPPVAGPSVFLFPPKPKDTLMISRTPEVTCVVVDVSQEDPEVQFNWYVDGVEVHNAKTKPREEQFNSTYRVVSVLTVLHQDWLNGKEYKCKVSNKGLPSSIEKTISKAKGQPREPQVYTLPPSQEEMTKNQVSLTCLVKGFYPSDIAVEWESNGQPENNYKTTPPVLDSDGSFFLYSRLTVDKSRWQEGNVFSCSVMHEALHNHYTQKSLSLSLGK | –
